Results taken from the Immune Epitope Database (IEDB).

Columns and labels:
HLA-A*24:03 = test: IEDB peptide-MHC binding, purified MHC/direct/fluorescence; filed as Kd, often an IC50 or EC50 that approximates it; ≥ and ≤ were set here for values at or beyond the usual limits of such assays; settings: source organism: Salmonella enterica subsp. enterica serovar Typhimurium str. LT2
HLA-B*51:01 = test: as above; settings: source organism: Salmonella enterica subsp. enterica serovar Typhimurium str. LT2
HLA-B*48:01 = test: as above; settings: source organism: Salmonella enterica
HLA-A*31:01 = test: as above; settings: source organism: Salmonella enterica
HLA-A*02:11 = test: as above; settings: source organism: Salmonella enterica subsp. enterica serovar Typhimurium str. LT2
HLA-B*38:01 = test: as above; settings: source organism: Salmonella enterica subsp. enterica serovar Typhimurium str. LT2
HLA-A*69:01 = test: as above; settings: source organism: Salmonella enterica
HLA-A*29:02 = test: as above; settings: source organism: Salmonella enterica subsp. enterica serovar Typhimurium str. LT2
HLA-B*08:02 = test: as above; settings: source organism: Salmonella enterica subsp. enterica serovar Typhimurium str. LT2
HLA-B*39:01 = test: as above; settings: source organism: Salmonella enterica subsp. enterica serovar Typhimurium str. LT2
HLA-A*02:19 = test: as above; settings: source organism: Salmonella enterica subsp. enterica serovar Typhimurium str. LT2
HLA-A*02:50 = test: as above; settings: source organism: Salmonella enterica subsp. enterica serovar Typhimurium str. LT2
HLA-A*11:01 = test: as above; settings: source organism: Salmonella enterica
HLA-B*58:01 = test: as above; settings: source organism: Salmonella enterica
HLA-A*26:02 = test: as above; settings: source organism: Salmonella enterica subsp. enterica serovar Typhimurium str. LT2
HLA-B*40:01 = test: as above; settings: source organism: Salmonella enterica
HLA-A*02:01 = test: as above; settings: source organism: Salmonella enterica
HLA-B*15:17 = test: IEDB peptide-MHC binding, purified MHC/competitive/fluorescence; filed as Kd, often an IC50 or EC50 that approximates it; ≥ and ≤ were set here for values at or beyond the usual limits of such assays; settings: source organism: Salmonella enterica subsp. enterica serovar Typhimurium str. LT2
HLA-B*45:06 = test: as above; settings: source organism: Salmonella enterica subsp. enterica serovar Typhimurium str. LT2
HLA-B*15:42 = test: as above; settings: source organism: Salmonella enterica subsp. enterica serovar Typhimurium str. LT2
HLA-B*83:01 = test: as above; settings: source organism: Salmonella enterica subsp. enterica serovar Typhimurium str. LT2
HLA-B*15:01 = test: as above; settings: source organism: Salmonella enterica subsp. enterica serovar Typhimurium str. LT2
HLA-A*02:06 = test: as above; settings: source organism: Salmonella enterica subsp. enterica serovar Typhimurium str. LT2
HLA-A*68:23 = test: as above; settings: source organism: Salmonella enterica subsp. enterica serovar Typhimurium str. LT2
HLA-A*02:03 = test: as above; settings: source organism: Salmonella enterica subsp. enterica serovar Typhimurium str. LT2

## FPASHMATY
HLA-A*24:03
  Kd: ≥ 20 µM
HLA-B*51:01
  Kd: ≥ 20 µM
HLA-B*48:01
  Kd: ≥ 20 µM
HLA-A*31:01
  Kd: ≥ 20 µM
HLA-A*02:11
  Kd: ≥ 20 µM
HLA-B*38:01
  Kd: ≥ 20 µM
HLA-A*69:01
  Kd: ≥ 20 µM
HLA-A*29:02
  Kd: 0.114 µM
HLA-B*08:02
  Kd: ≥ 20 µM
HLA-B*39:01
  Kd: ≥ 20 µM
HLA-A*02:19
  Kd: ≥ 20 µM
HLA-A*02:50
  Kd: ≥ 20 µM
HLA-A*11:01
  Kd: ≥ 20 µM
HLA-B*58:01
  Kd: ≥ 20 µM
HLA-A*26:02
  Kd: ≤ 0.001 µM
HLA-B*40:01
  Kd: ≥ 20 µM
HLA-A*02:01
  Kd: ≥ 20 µM
HLA-B*15:17
  Kd: ≥ 20 µM
HLA-B*45:06
  Kd: ≥ 5 µM
HLA-B*15:42
  Kd: ≥ 5 µM
HLA-B*83:01
  Kd: 0.22 µM
HLA-B*15:01
  Kd: 0.334 µM
HLA-A*02:06
  Kd: 1.29 µM
HLA-A*68:23
  Kd: 0.006 µM
HLA-A*02:03
  Kd: ≥ 20 µM
